Source: patent publication EP0730651B1

Assays:
[1] = target: soluble KGF receptor (FGFR(IIIb); K-sam) alkaline phosphatase fusion (FRAP) (murine) (UniProt P21803); assay: competition with 125I-FGF-7, receptor binding experiments like those of Example 6
[2] = target: soluble KGF receptor (FGFR(IIIb); K-sam) alkaline phosphatase fusion (FRAP) (murine) (UniProt P21803); assay: displacement of 125I-FGF-7 from soluble FGFR2(IIIb)-AP

UniProt P21803, sequence (P21803 22-377): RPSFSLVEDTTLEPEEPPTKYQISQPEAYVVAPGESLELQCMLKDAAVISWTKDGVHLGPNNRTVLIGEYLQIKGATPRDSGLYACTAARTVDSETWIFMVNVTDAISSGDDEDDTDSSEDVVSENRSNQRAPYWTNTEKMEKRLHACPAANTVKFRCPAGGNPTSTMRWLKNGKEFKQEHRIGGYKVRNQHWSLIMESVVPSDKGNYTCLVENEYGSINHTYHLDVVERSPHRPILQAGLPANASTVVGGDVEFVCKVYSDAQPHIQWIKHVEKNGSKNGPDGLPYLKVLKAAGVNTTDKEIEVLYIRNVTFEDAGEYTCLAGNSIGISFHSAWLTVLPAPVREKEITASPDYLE

fold weaker potency of competition than unlabelled FGF-7 [1] [times weaker]	fold weaker binding than FGF-7 or FGF-1 [2] [times less]	Substance
100		FGF-2LK (FGF-2 loop mutant containing the 9-residue loop sequence Ala-Lys-Trp-Thr-His-Asn-Gly-Gly-Glu from FGF-7) (from UniProt P09038 1-117; P09038 123-155) (ligand)
	5	FGF-2LA (human FGF-2 with surface loop residues 118 to 122 replaced by the corresponding bovine FGF-1 sequence) (ligand)
